Reference: patent US6709838

Biological target: human Ptch (SEQ ID NO:4), overexpressed on transfected human 293 embryonic kidney cells (human) (UniProt Q13635)
Assay: Scatchard analysis of 125I-Shh displacement curves, 293 cells expressing Ptch

Row | Kd | Substance
1 | 2.6 nM | Dhh (SEQ ID NO:13) (from UniProt Q61488 23-198) (ligand)
2 | 1 nM | Ihh (SEQ ID NO:29) (from UniProt P97812 28-202) (ligand)
3 | 1 nM | Shh (SEQ ID NO:14), 19kD amino terminal fragment of murine Shh (from UniProt Q62226 25-198) (ligand)
